Experimental findings from PMC3792999, “Identification and Characterization of a Cold-Active Phthalate Esters Hydrolase by Screening a Metagenomic Library Derived from Biofilms of a Wastewater Treatment Plant” (PLoS ONE, 2013) are described below.

Assay in all cases: purified protein
Series [1] concerns CCCCOC(=O)c1ccccc1C(=O)OCCCC.
The test system of series [2] is CCCCCOC(=O)c1ccccc1C(=O)OCCCCC. Particulars: pH 7.5; 10.0 °C.
The subject of series [3] is CCCOC(=O)c1ccccc1C(=O)OCCC. Particulars: pH 7.5; 10.0 °C.
Setting [4] is: 10 mM sodium phosphate pH 7.5, 10°C.

For the substance DphB (uncultured bacterium), in series [1] (pH 7.5, 10.0 °C), the Michaelis-Menten constant (Km) came to 561 ± 16 µM, the maximal velocity (Vmax) turned out to be 40.7 µmol/min/mg and the specificity constant (kcat/Km) was determined as 70000 ± 2000 M⁻¹ s⁻¹. For the same substance, in series [2], the Michaelis-Menten constant (Km) is 378 ± 18 µM, the maximal velocity (Vmax) is 45.9 µmol/min/mg and the catalytic efficiency (kcat/Km) stood at 118000 ± 4000 M⁻¹ s⁻¹. Further, in series [3], the Michaelis-Menten constant (Km) amounted to 271 ± 12 µM, the maximal velocity (Vmax) amounted to 46.4 µmol/min/mg and the specificity constant (kcat/Km) is 166000 ± 5000 M⁻¹ s⁻¹.

As for DphB (uncultured bacterium; D255A), in series [1] (setting [4]), the Km came out at 20300 ± 1170 µM and the kcat amounted to 6.95 ± 1.42 s⁻¹.
